Experimental data as given in US7718774 (MacroGenics, dated 2010).

Molecular target: T1, His-tagged 2Ig-B7H3 (R&D Systems) (UniProt Q5ZPR3-2 29-245, limits assumed)
T1 construct: the 2Ig form is an isoform of it; also called 2Ig-B7H3(His); xHis 2Ig (when captured by mouse anti-poly His antibody); not shown: His tag
T1 sequence (looked up): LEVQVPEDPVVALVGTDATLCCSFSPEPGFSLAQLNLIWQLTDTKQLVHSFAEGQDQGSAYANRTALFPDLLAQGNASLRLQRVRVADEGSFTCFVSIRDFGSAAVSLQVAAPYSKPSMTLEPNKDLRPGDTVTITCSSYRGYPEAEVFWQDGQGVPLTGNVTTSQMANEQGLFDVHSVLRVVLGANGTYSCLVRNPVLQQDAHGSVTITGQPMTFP
Test: ELISA, 5 µg/ml 2Ig-B7H3(His) captured by mouse anti-poly His antibody, streptavidin-HRP
Experimental: To further investigate mu-anti-TES binding to 4Ig-B7H3, ELISA crosslinking experiments with a His-tagged 2Ig-B7H3 (R&D Systems) were performed. 5 µg/ml of a capture antibody, mouse anti-poly His antibody, was coated on a 96-well plate as a control, a no coat well (naked well) was also used. The wells with the capture antibody were then blocked with HBSS+1% BSA. 5 µg/ml of 2Ig-B7H3(His) or 4Ig-B7H3(His) was introduced into naked wells or capture antibody-coated wells. As a control, 5 µg/ml of 2Ig-B7H3(Fc) was introduced into naked wells. The plate was then blocked again with HBSS+1% BSA. Then […] of biotinylated mu-anti-TES7, BLA8, PA20 or STO5 (another anti-B7H3 antibody that only recognizes the 4Ig form of B7H3) was introduced into the plate. The bound biotinylated antibodies were then detected with streptavidin-HRP using standard protocols.

binding result: no binding
B1: mu-anti-TES7 (antibody, V domains shown)
VH: QVQLQQSGPELVKPGTSVRISCKASGYTFTSYYIHWVKQRPGQGLEWIGWIYPGNVNTKYNENFKGKATLTADKSSSTAYMQLSSLTSEDSAVYFCARGGYFFDQWGQGTTLTVSS
VL: DVQITQSPSYLAASPGETITVNCRASESISKYLAWYQEKPGKTNKLLIYSGSTLQSGIPSRFSGSGSGSDFTLTISSLEPEDFAMYYCHQHNEFPLTFGAGTKLELK
notes: Mouse monoclonal IgG purified from hybridoma supernatant on protein G; also called mouse anti-huTES7 antibody; murine anti-TES7 antibody
